Read-outs that look alike come from different tables or passages of the source.
Tested on: HCoV-OC43 gRNA and sgRNA
Format: binding
Conditions: for target (unweighted spectral count, OC43 Probe II capture): FDR<10%; for target (unweighted spectral count, OC43 Probe II): OC43 Probe II capture on infected cells; for background (unweighted spectral count, no-probe control): no-probe control on infected cells
[1] = 36 hpi, type n_36_v, tested against no-probe control

B1: GNL3 (protein, UniProt Q9BVP2 1-549, looked up)
Guanine nucleotide-binding …: MKRPKLKKASKRMTCHKRYKIQKKVREHHRKLRKEAKKRGHKKPRKDPGVPNSAPFKEALLREAELRKQRLEELKQQQKLDRQKELEKKRKLETNPDIKPSNVEPMEKEFGLCKTENKAKSGKQNSKKLYCQELKKVIEASDVVLEVLDARDPLGCRCPQVEEAIVQSGQKKLVLILNKSDLVPKENLESWLNYLKKELPTVVFRASTKPKDKGKITKRVKAKKNAAPFRSEVCFGKEGLWKLLGGFQETCSKAIRVGVIGFPNVGKSSIINSLKQEQMCNVGVSMGLTRSMQVVPLDKQITIIDSPSFIVSPLNSSSALALRSPASIEVVKPMEAASAILSQADARQVVLKYTVPGYRNSLEFFTVLAQRRGMHQKGGIPNVEGAAKLLWSEWTGASLAYYCHPPTSWTPPPYFNESIVVDMKSGFNLEELEKNNAQSIRAIKGPHLANSILFQSSGLTNGIIEEKDIHEELPKRKERKQEEREDDKDSDQETVDEEVDENSSGMFAAEETGEALSEETTAGEQSTRSFILDKIIEEDDAYDFSTDYV
target (unweighted spectral count, OC43 Probe II capture) [1]: 4

B2: DHX15 (protein, UniProt O43143 1-795, looked up)
ATP-dependent RNA helicase …: MSKRHRLDLGEDYPSGKKRAGTDGKDRDRDRDREDRSKDRDRERDRGDREREREKEKEKELRASTNAMLISAGLPPLKASHSAHSTHSAHSTHSTHSAHSTHAGHAGHTSLPQCINPFTNLPHTPRYYDILKKRLQLPVWEYKDRFTDILVRHQSFVLVGETGSGKTTQIPQWCVEYMRSLPGPKRGVACTQPRRVAAMSVAQRVADEMDVMLGQEVGYSIRFEDCSSAKTILKYMTDGMLLREAMNDPLLERYGVIILDEAHERTLATDILMGVLKEVVRQRSDLKVIVMSATLDAGKFQIYFDNCPLLTIPGRTHPVEIFYTPEPERDYLEAAIRTVIQIHMCEEEEGDLLLFLTGQEEIDEACKRIKREVDDLGPEVGDIKIIPLYSTLPPQQQQRIFEPPPPKKQNGAIGRKVVVSTNIAETSLTIDGVVFVIDPGFAKQKVYNPRIRVESLLVTAISKASAQQRAGRAGRTRPGKCFRLYTEKAYKTEMQDNTYPEILRSNLGSVVLQLKKLGIDDLVHFDFMDPPAPETLMRALELLNYLAALNDDGDLTELGSMMAEFPLDPQLAKMVIASCDYNCSNEVLSITAMLSVPQCFVRPTEAKKAADEAKMRFAHIDGDHLTLLNVYHAFKQNHESVQWCYDNFINYRSLMSADNVRQQLSRIMDRFNLPRRSTDFTSRDYYINIRKALVTGYFMQVAHLERTGHYLTVKDNQVVQLHPSTVLDHKPEWVLYNEFVLTTKNYIRTCTDIKPEWLVKIAPQYYDMSNFPQCEAKRQLDRIIAKLQSKEYSQY
target (unweighted spectral count, OC43 Probe II) (type n_48_v, 48 hpi): 13
background (unweighted spectral count, no-probe control) (type n_48_v, 48 hpi): 3

B3: C8orf33 (protein, UniProt Q9H7E9 2-229, looked up)
UPF0488 protein C8orf33: AALGHLAGEAAAAPGPGTPCASRGARLPGPVSSARNPSTVCLCPEQPTCSNADSRAHPLGDEGGTASKKQKNKKKTRNRASVANGGEKASEKLAPEEVPLSAEAQAQQLAQELAWCVEQLELGLKRQKPTPKQKEQAIGAIRTLRSKRTPLPRKRQLMHSLFGDYRAQMEAEWREALRALRAAAYSAQVQPVDGATRKKSQRVCRPRSIWRAKATLDMPDEEFRFNFF
target (unweighted spectral count, OC43 Probe II capture) [1]: 4

B4: TFB1M (protein, UniProt Q8WVM0 28-346, looked up)
Dimethyladenosine transferase …: QAAKQLSQNFLLDLRLTDKIVRKAGNLTNAYVYEVGPGPGGITRSILNADVAELLVVEKDTRFIPGLQMLSDAAPGKLRIVHGDVLTFKVEKAFSESLKRPWEDDPPNVHIIGNLPFSVSTPLIIKWLENISCRDGPFVYGRTQMTLTFQKEVAERLAANTGSKQRSRLSVMAQYLCNVRHIFTIPGQAFVPKPEVDVGVVHFTPLIQPKIEQPFKLVEKVVQNVFQFRRKYCHRGLRMLFPEAQRLESTGRLLELADIDPTLRPRQLSISHFKSLCDVYRKMCDEDPQLFAYNFREELKRRKSKNEEKEEDDAENYRL
target (unweighted spectral count, OC43 Probe II capture) [1]: 4

B5: NOP58 (protein, UniProt Q9Y2X3 1-529, looked up)
Nucleolar protein 58: MLVLFETSVGYAIFKVLNEKKLQEVDSLWKEFETPEKANKIVKLKHFEKFQDTAEALAAFTALMEGKINKQLKKVLKKIVKEAHEPLAVADAKLGGVIKEKLNLSCIHSPVVNELMRGIRSQMDGLIPGVEPREMAAMCLGLAHSLSRYRLKFSADKVDTMIVQAISLLDDLDKELNNYIMRCREWYGWHFPELGKIISDNLTYCKCLQKVGDRKNYASAKLSELLPEEVEAEVKAAAEISMGTEVSEEDICNILHLCTQVIEISEYRTQLYEYLQNRMMAIAPNVTVMVGELVGARLIAHAGSLLNLAKHAASTVQILGAEKALFRALKSRRDTPKYGLIYHASLVGQTSPKHKGKISRMLAAKTVLAIRYDAFGEDSSSAMGVENRAKLEARLRTLEDRGIRKISGTGKALAKTEKYEHKSEVKTYDPSGDSTLPTCSKKRKIEQVDKEDEITEKKAKKAKIKVKVEEEEEEKVAEEEETSVKKKKKRGKKKHIKEEPLSEEEPCTSTAIASPEKKKKKKKKRENED
target (unweighted spectral count, OC43 Probe II capture) [1]: 4

B6: EIF2A (protein, UniProt Q9BY44 1-585, looked up)
Eukaryotic translation …: MAPSTPLLTVRGSEGLYMVNGPPHFTESTVFPRESGKNCKVCIFSKDGTLFAWGNGEKVNIISVTNKGLLHSFDLLKAVCLEFSPKNTVLATWQPYTTSKDGTAGIPNLQLYDVKTGTCLKSFIQKKMQNWCPSWSEDETLCARNVNNEVHFFENNNFNTIANKLHLQKINDFVLSPGPQPYKVAVYVPGSKGAPSFVRLYQYPNFAGPHAALANKSFFKADKVTMLWNKKATAVLVIASTDVDKTGASYYGEQTLHYIATNGESAVVQLPKNGPIYDVVWNSSSTEFCAVYGFMPAKATIFNLKCDPVFDFGTGPRNAAYYSPHGHILVLAGFGNLRGQMEVWDVKNYKLISKPVASDSTYFAWCPDGEHILTATCAPRLRVNNGYKIWHYTGSILHKYDVPSNAELWQVSWQPFLDGIFPAKTITYQAVPSEVPNEEPKVATAYRPPALRNKPITNSKLHEEEPPQNMKPQSGNDKPLSKTALKNQRKHEAKKAAKQEARSDKSPDLAPTPAPQSTPRNTVSQSISGDPEIDKKIKNLKKKLKAIEQLKEQAATGKQLEKNQLEKIQKETALLQELEDLELGI
target (unweighted spectral count, OC43 Probe II capture) [1]: 4
target (unweighted spectral count, OC43 Probe II) (type n_48_v, 48 hpi): 5
background (unweighted spectral count, no-probe control) (type n_48_v, 48 hpi): 1

B7: TUBB (protein, UniProt P07437 1-444, looked up)
Tubulin beta chain: MREIVHIQAGQCGNQIGAKFWEVISDEHGIDPTGTYHGDSDLQLDRISVYYNEATGGKYVPRAILVDLEPGTMDSVRSGPFGQIFRPDNFVFGQSGAGNNWAKGHYTEGAELVDSVLDVVRKEAESCDCLQGFQLTHSLGGGTGSGMGTLLISKIREEYPDRIMNTFSVVPSPKVSDTVVEPYNATLSVHQLVENTDETYCIDNEALYDICFRTLKLTTPTYGDLNHLVSATMSGVTTCLRFPGQLNADLRKLAVNMVPFPRLHFFMPGFAPLTSRGSQQYRALTVPELTQQVFDAKNMMAACDPRHGRYLTVAAVFRGRMSMKEVDEQMLNVQNKNSSYFVEWIPNNVKTAVCDIPPRGLKMAVTFIGNSTAIQELFKRISEQFTAMFRRKAFLHWYTGEGMDEMEFTEAESNMNDLVSEYQQYQDATAEEEEDFGEEAEEEA
target (unweighted spectral count) (OC43 Probe II, 12 hpi (type n_12_v), infected cells, tested against no-probe control): 11
target (unweighted spectral count, OC43 Probe II) (type n_36_v, 36 hpi): 11
background (unweighted spectral count, no-probe control) (type n_36_v, 36 hpi): 4

Source: US20230407373A1 (priority 2020, published 2023)
